Test results: PMC11187310, “Are there double knots in proteins? Prediction and in vitro verification based on TrmD-Tm1570 fusion from C. nitroreducens” (Frontiers in Molecular Biosciences, 2023)

Legend:
[1] = target: Tm1570 domain of CnTrmD-Tm1570 (residues 241-433) (Calditerrivibrio nitroreducens); test: SEC; preparative Superdex 75 column; running buffer 50 mM Hepes, 300 mM NaCl, 10% glycerol, 1 mM TCEP, pH 7.4; proteins refolded from urea; oligomer state judged by retention volumes
[2] = target: the molecule itself; test: as above

| Molecule | stoichiometry N [2] | other results |
| --- | --- | --- |
| Tm1570 domain of CnTrmD-Tm1570 (residues 241-433) (domain or fragment) |  | stoichiometry N [1]: 2 |
| TrmD domain of CnTrmD-Tm1570 (residues 1-240) (domain or fragment, Calditerrivibrio nitroreducens, UniProt E4THH1 1-240, looked up, TrmD domain of TrmD-Tm1570 of Calditerrivibrio nitroreducens, UniProtKB E4THH1, residues 1-240; 27.5 kDa monomer; Truncated version of m1) MKRYNVITIFPEMINEIFKYGVLSKGIDIGLFRVNPINLRDYTEDKHKTVDDYQYGGGHGLVMKPEPIYKAIADLKSKKDTHVVFLDPRGEQFTQKTAERLYNYDDITFVCGRYEGIDDRVRELMADEMISIGDFVITGGELAAVTIIDAVARLIPGVLGDENSPNEESFTTGLLEYPHFTRPAEFMGKKVPEVLISGNHEEIRRWRLTESIKTTLQNRPDMILRKSLSREEEQILWSLT | 2 |  |
| single-domain EcTrmD (enzyme, E. coli (from the label EcTrmD), UniProt P0A873 1-255, looked up, tRNA methyltransferase D (TrmD), single-domain protein, labelled EcTrmD; 28.4 kDa monomer; The printed monomer mass of 28.4 kDa fits the whole protein) MWIGIISLFPEMFRAITDYGVTGRAVKNGLLSIQSWSPRDFTHDRHRTVDDRPYGGGPGMLMMVQPLRDAIHAAKAAAGEGAKVIYLSPQGRKLDQAGVSELATNQKLILVCGRYEGIDERVIQTEIDEEWSIGDYVLSGGELPAMTLIDSVSRFIPGVLGHEASATEDSFAEGLLDCPHYTRPEVLEGMEVPPVLLSGNHAEIRRWRLKQSLGRTWLRRPELLENLALTEEQARLLAEFKTEHAQQQHKHDGMA |  | binding result [2]: binds |
| TrmD-Tm1570 fusion protein from Calditerrivibrio nitroreducens (enzyme, UniProt E4THH1 1-433, looked up, TrmD-Tm1570 (PF01746-PF09936 architecture) of Calditerrivibrio nitroreducens, UniProtKB E4THH1; full-length protein, residues 1-433 by the limits of the two truncated domains; 49.6 kDa monomer; Codon-optimized synthetic gene in pET28b; further details of the constructs are in SI Materials and Methods; also called CnTrmD-Tm1570; fusion TrmD-Tm1570) MKRYNVITIFPEMINEIFKYGVLSKGIDIGLFRVNPINLRDYTEDKHKTVDDYQYGGGHGLVMKPEPIYKAIADLKSKKDTHVVFLDPRGEQFTQKTAERLYNYDDITFVCGRYEGIDDRVRELMADEMISIGDFVITGGELAAVTIIDAVARLIPGVLGDENSPNEESFTTGLLEYPHFTRPAEFMGKKVPEVLISGNHEEIRRWRLTESIKTTLQNRPDMILRKSLSREEEQILWSLTRGVQRKYNIYVALMHYPMRDKEGKVVTTSITNMDLHDISRSCRTFGVKNYFVVNPMPAQREIASRVVRHWIKGYGATYNENRKEAFEYTIITDSLASVIKSIEEKESGSPIIIATTARYQQKAISIEKLKEIADRPILLLFGTGWGFVDDILEFADYVLKPIHGVGDFNHLSVRSAVAIYLDRINRSFQEDIL | 2 |  |
